Results: patent publication US20170306005A1 (NASCIENT, published 2017)

Columns and labels:
[1] = target: T1, dog tenascin-C rCD4-His-FBG (rat; dog, UniProt P05540 207-392, limits assumed); experiment: SPR, captured purified IgG4, 37 C
T1 construct: domain: domains 3 and 4; C-terminal FBG fusion; also called Dog TNC; not shown: 6His tag
T1 sequence (chain (part 1 of 2)): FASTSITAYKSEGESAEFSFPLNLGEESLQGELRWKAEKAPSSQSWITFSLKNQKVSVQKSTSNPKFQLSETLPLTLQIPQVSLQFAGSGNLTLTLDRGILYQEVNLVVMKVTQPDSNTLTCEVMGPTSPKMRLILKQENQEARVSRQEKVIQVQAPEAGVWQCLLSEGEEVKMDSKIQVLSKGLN
T1 sequence (chain (part 2 of 2)): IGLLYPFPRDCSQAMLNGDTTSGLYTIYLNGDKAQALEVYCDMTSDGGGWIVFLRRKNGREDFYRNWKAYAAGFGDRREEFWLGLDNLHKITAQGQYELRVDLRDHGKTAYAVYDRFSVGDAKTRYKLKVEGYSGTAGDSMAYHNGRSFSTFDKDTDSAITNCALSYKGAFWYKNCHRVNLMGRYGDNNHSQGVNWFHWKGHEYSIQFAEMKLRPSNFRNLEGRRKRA
Method: (§1) Detailed kinetic parameters were evaluated for the 9 prioritised IgG4 antibodies. Binding characteristics were determined for interaction with human, rat and dog TNC rCD4-His-FBG, and human TNR rCD4-His-FBG. Kinetic assays followed essentially the same protocols as for the off-rate determinations described above, with some modifications as follows. […] Purified anti-FBG IgG4 was diluted to a concentration of 3.5 nM in PBS, pH 7.4, 0.05% Tween-20 and injected into FC2 at a flow rate of 10 μl/min, 60 s contact time. […] Antigens were prepared by doubling dilution in PBS, pH 7.4, 0.05% Tween-20 (highest concentration 100 nM except mouse rCD4-His-FBG which was 7 nM). Assays were performed at 37° C. (30 μl/min, 120 s contact time; mouse rCD4-His-FBGFBG 10 μl/min, 60 s contact time), with both the flow cell and injection chamber equilibrated to this temperature. As before, kinetic parameters were determined by reference cell subtraction and fitting the sensogram experimental data assuming a 1:1 interaction using BIAevaluation software (GE, BR-1005-97).

[2] = target: T2, mouse tenascin-C rCd4-His-FBG (rat; mouse, UniProt P05540 207-392, limits assumed); experiment: SPR, captured purified IgG4, 37 C
T2 construct: domain: domains 3 and 4; C-terminal FBG fusion; biotinylated in the ELISA screen; also called Mu TNC; mouse TNC rCd4-His-FBG; not shown: 6His tag
T2 sequence (chain (part 1 of 2)): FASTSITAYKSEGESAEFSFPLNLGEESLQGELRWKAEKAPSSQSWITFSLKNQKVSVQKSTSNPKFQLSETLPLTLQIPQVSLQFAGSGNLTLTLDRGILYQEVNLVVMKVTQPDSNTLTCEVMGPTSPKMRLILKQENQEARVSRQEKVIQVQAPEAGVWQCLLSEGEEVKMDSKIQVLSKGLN
T2 sequence (chain (part 2 of 2)): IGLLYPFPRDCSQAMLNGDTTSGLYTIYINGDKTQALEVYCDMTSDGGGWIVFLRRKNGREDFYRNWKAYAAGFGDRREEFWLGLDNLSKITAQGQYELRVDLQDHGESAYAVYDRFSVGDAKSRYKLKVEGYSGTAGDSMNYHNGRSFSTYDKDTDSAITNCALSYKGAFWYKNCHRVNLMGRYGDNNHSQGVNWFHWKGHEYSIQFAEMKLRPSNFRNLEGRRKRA
Method: as §1

[3] = target: T3, human tenascin-C rCd4-His-FBG (rat; human, UniProt P05540 207-392, limits assumed); experiment: SPR, captured purified IgG4, 37 C
T3 construct: domain: domains 3 and 4; C-terminal FBG fusion; biotinylated in the ELISA and HTRF screens; also called Hu TNC; human TNC rCd4-His-FBG; not shown: 6His tag
T3 sequence (chain (part 1 of 2)): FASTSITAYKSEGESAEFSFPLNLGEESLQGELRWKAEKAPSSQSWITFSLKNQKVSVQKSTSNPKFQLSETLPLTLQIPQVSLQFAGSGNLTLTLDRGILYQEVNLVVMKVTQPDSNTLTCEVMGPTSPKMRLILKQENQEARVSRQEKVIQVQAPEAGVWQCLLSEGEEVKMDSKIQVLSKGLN
T3 sequence (chain (part 2 of 2)): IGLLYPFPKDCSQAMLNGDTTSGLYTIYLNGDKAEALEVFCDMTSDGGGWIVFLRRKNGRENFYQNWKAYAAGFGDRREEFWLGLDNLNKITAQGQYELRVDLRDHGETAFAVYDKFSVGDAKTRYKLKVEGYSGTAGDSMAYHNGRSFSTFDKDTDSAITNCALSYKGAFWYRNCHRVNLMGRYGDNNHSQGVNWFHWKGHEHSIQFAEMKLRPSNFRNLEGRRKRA
Method: as §1

[4] = target: T4, rat tenascin-C rCd4-His-FBG (rat, UniProt P05540 207-392, limits assumed); experiment: SPR, captured purified IgG4, 37 C
T4 construct: domain: domains 3 and 4; C-terminal FBG fusion; also called Rat TNC; rat TNC rCD4-His-FBG; not shown: 6His tag
T4 sequence (chain (part 1 of 2)): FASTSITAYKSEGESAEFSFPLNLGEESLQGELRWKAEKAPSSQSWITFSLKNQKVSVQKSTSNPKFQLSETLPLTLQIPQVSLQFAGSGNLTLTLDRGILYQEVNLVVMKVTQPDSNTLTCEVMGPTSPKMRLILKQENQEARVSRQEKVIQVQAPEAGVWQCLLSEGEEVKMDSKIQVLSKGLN
T4 sequence (chain (part 2 of 2)): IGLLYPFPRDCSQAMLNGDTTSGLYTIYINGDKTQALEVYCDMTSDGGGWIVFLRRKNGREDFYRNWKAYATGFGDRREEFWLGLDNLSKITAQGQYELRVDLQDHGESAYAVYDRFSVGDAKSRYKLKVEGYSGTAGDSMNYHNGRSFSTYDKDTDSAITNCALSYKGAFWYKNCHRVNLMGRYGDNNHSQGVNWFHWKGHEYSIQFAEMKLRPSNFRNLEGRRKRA
Method: as §1

[5] = target: T2, mouse tenascin-C rCd4-His-FBG; experiment: SPR off-rate screen, captured IgG4 supernatant, 25 C
Outline: (§2)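 SPR at 25 °C: IgG4 (S241P) from culture supernatant, diluted 1:2 in 2×PBS-T, captured on anti-human Fc surface; antigen injected at a fixed 15 nM (human and mouse TNC rCd4-His-FBG) or 100 nM (human TNR rCd4-His-FBG), 30 μl/min. Association 1 min, dissociation 5 min; off-rates from reference-subtracted 1:1 fits.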

[6] = target: T3, human tenascin-C rCd4-His-FBG; experiment: as above
Outline: as §2

[7] = target: T5, human tenascin-R rCd4-His-FBG (rat; human, UniProt P05540 207-392, limits assumed); experiment: SPR (BIAcore), Fab captured (23 nM) on anti-CL kappa / anti-CL lambda CM5 sensor chip, rCd4-FBG injected up to 2 µM; steady-state plot of response against concentration [Con't]
T5 construct: domain: domains 3 and 4; C-terminal FBG fusion; also called Hu TNR; human TNR rCd4-His-FBG; not shown: 6His tag
T5 sequence (chain (part 1 of 2)): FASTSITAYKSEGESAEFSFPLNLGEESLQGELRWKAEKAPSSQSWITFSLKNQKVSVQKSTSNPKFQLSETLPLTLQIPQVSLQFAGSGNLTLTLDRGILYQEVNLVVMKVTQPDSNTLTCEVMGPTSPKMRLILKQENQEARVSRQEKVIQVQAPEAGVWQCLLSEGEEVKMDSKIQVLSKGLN
T5 sequence (chain (part 2 of 2)): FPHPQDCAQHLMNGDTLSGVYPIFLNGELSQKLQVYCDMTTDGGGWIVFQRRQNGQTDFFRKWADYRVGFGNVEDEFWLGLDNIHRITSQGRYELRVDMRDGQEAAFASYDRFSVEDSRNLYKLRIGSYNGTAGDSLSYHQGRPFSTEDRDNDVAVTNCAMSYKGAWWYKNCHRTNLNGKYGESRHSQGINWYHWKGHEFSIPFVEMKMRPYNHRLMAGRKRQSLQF
Method: (§3) Experiments were performed using a BIAcore T100 instrument with CM5 sensor chip according to the protocol provided with the Human Fab Capture Kit (GE, 28-9583-25). […] After reference signal subtraction, the data was fitted to a global 1:1 fit using the T100 BIAevaluation software (FIGS. 6 a-d).

[8] = target: T2, mouse tenascin-C rCd4-His-FBG; experiment: SPR, captured Fab, 25 C
Method: as §3

[9] = target: T3, human tenascin-C rCd4-His-FBG; experiment: SPR, captured Fab, 25 C
Method: as §3

[10] = target: T5, human tenascin-R rCd4-His-FBG; experiment: SPR, captured Fab, 25 C
Method: as §3

human Fc-His-FBG = target: T6, human Fc-His-FBG (human, UniProt P24821 1974-2201); experiment: cell-based or functional assay
T6 sequence: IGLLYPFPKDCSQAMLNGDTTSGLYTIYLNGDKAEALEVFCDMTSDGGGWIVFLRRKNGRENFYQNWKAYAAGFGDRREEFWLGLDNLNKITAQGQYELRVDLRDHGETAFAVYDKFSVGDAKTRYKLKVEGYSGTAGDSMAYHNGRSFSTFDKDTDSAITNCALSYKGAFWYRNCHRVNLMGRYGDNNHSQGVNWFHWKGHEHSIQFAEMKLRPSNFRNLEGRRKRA

[11] = target: T2, mouse tenascin-C rCd4-His-FBG; experiment: SPR steady state, captured Fab, 25 C
Method: as §3

[12] = target: T5, human tenascin-R rCd4-His-FBG; experiment: SPR steady state, captured Fab, 25 C
Method: as §3

Human FGB-rCd4 = target: T7, Human FGB-rCd4; experiment: ELISA (DELFIA), antigen coated on the well, purified Fab at 50 nM, detected with anti-kappa or anti-lambda mAb and Europium-conjugated anti-mouse mAb
T7 construct: Not the same construct as m1, which has the FBG at the C terminus; also called human TNC FBG-rCD4; human tenascin-C FBG-rCd4-His (FBG at the N terminus of the rat Cd4 tag); not shown: rat Cd4 (domains 3 and 4) tag, the C-terminal His6 tag and the vector-derived junction residues of pBIOCAM4
T7 chain: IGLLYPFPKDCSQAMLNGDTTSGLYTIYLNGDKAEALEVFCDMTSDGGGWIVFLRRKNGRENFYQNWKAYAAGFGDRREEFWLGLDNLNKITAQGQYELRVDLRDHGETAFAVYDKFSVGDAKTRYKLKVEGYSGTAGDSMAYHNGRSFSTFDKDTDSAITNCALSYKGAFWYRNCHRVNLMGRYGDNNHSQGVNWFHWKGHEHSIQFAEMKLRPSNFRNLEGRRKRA

B1: 165_13_B1 human IgG4 (antibody, V domains shown)
VH: QVQLVESGGGLVQPGRSLRLSCAASGFTFDDYAMHWVRQAPGKGLEWVSGISGSGGSTYYADSVKGRFTISRDNAKNSLYLQMNSLRAEDTALYYCAKVMSSMEDAFDIWGQGTMVTVSS
VL: DIQMTQSPASLPTPVGDRVTITCRASQYIQGFLNWYQQKPGKAPKLLIYDASNLETGVPSRFSGSGSGTDFTLTISSLQPEDFATYYCQQSYSTPQTFGQGTKVDIKR
notes: human IgG4 with hinge S241P
Kd [1]: 2.85 nM | koff [1]: 0.0187 s⁻¹ | kon [1]: 6.55e+06 M⁻¹ s⁻¹ | Kd [2]: 0.96 nM | koff [2]: 0.000706 s⁻¹ | kon [2]: 733000 M⁻¹ s⁻¹ | Kd [3]: 0.26 nM | koff [3]: 0.00188 s⁻¹ | kon [3]: 7.27e+06 M⁻¹ s⁻¹ | Kd [4]: 2.2 nM | koff [4]: 0.00684 s⁻¹ | kon [4]: 3.11e+06 M⁻¹ s⁻¹ | koff [5]: 1.7e-06 s⁻¹ | koff [6]: 1.5e-06 s⁻¹

B2: Fab D8 (Fab, V domains shown)
VH: EVQLVQSGAEVKKPGASVKVSCKASGYTFTSYGISWVRQAPGQGLEWMGWISAYNGNTNYAQKLQGRVTMTTDTSTSTAYMELRSLRSDDTAVYYCARNQDSSSDYWGQGTLVTVSS
VL: DIQMTQSPASLPTSVGDRVTITCRASQYIQGFLNWYQQKPGKAPKLLIYDASNLETGVPSRFSGSGSGTDFTLTISSLQPEDFATYYCQQSYSTLQTFGQGTKVDIKR
notes: monomeric Fab
Kd [7]: 1110 nM | Kd [8]: 48.4 nM | koff [8]: 0.0716 s⁻¹ | kon [8]: 1.48e+06 M⁻¹ s⁻¹ | Kd [9]: 8.49 nM | koff [9]: 0.0131 s⁻¹ | kon [9]: 1.54e+06 M⁻¹ s⁻¹ | Kd [10]: 1030 nM | koff [10]: 0.57 s⁻¹ | kon [10]: 555000 M⁻¹ s⁻¹ | IC50, inhibition of Fc-His-HuFBG-evoked IL-8 release, THP1-Blue cells (human Fc-His-FBG): 14.9 nM | IC50, inhibition of Fc-His-HuFBG-evoked alkaline phosphatase, THP1-Blue cells (human Fc-His-FBG): 7.2 nM | Kd [11]: 41.2 nM | Kd [12]: 913 nM | binding result (Human FGB-rCd4): binds
